{"source": "the supplement of paper PMC12764529", "note": "± gives the half width of the 95% confidence interval.", "data": [{"test": "folding stability dG unfold (combined trypsin and chymotrypsin); higher = more stable", "procedure,_shortened": "(§1)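 How resistant each design was to proteolysis was captured as K50, inferred by Bayesian fitting of sequencing counts. Unfolding free energy was then derived relative to a sequence-predicted unfolded-state K50 and a shared folded-state K50, per protease or combined. Digestion used trypsin and chymotrypsin at 11 threefold-diluted concentrations plus a no-protease condition, on mini-proteins under 80 residues without cysteine in a PA-tagged cDNA display construct. Designs were kept only when AlphaFold2 dimer inter-PAE was above 15.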", "units": {"folding stability dG unfold": "kcal/mol"}, "values": [{"sequence": "SAGGSAGGSAGGMKKKIPNKTLTIEIEVKLENGLYLKMKITVNKNGEIKIEIEVIPKEDLSAGGSAGGSAGG [r7_214_TrROS_Hall]", "folding stability dG unfold": "3.08 ± 0.14"}, {"sequence": "SAGGVIELPNAGLPEFLAFLKEAAEKGIPNVTVILTGPSKPYLAIYDPKKNIVTVLHPNGKTYTFKASAGGS [r16_481_TrMRF]", "folding stability dG unfold": "2.91 ± 0.12"}, {"sequence": "SAGGSAGGSAGGPPKWVIFIMIEIRPVTVEVYDPKNGEPLMEKPVWVIKIKIFLFKPGDFSAGGSAGGSAGG [r7_573_TrROS]", "folding stability dG unfold": "4.54 ± 0.13"}, {"sequence": "SMPMTVEEFLEANPDVILIRLPNEKVIFINPEEEKAFVLLPETGEVLVIDATLEEVLELVPEFGAEILDESA [r9_721_TrMRF]", "folding stability dG unfold": "2.34 ± 0.052"}, {"sequence": "NKIEIKAYKIEETGEIIVEVKIEFPVYDPETKTIKPVVLTITFVGDPEKAIEAIKKFVDFYGGEIDYIDFGS [r1_488_TrMRF]", "folding stability dG unfold": "4.36 ± 0.1"}, {"sequence": "SAGGMPLPFRITQWDPNTGKPVATFPAVYDPETGLVVITPPDGSKEVFDAPLEEIVEALPSNWTVEPSAGGS [r16_543_TrMRF]", "folding stability dG unfold": "0.083 ± 0.16"}, {"sequence": "SAGGSAGGSKLVLRIVVRNKETGEWQTLELEIEVEESEEEALAKAKELLASLPEEDVKIEILPSAGGSAGGS [r12_871_TrROS_Hall]", "folding stability dG unfold": "3.56 ± 0.071"}, {"sequence": "SAGGSAGGSKKPVKVTVTVEVNPETGEITKVTVTEEYKDGTVTVTVTNANGEKLTFTFKIKKPSAGGSAGGS [r12_60_TrROS_Hall]", "folding stability dG unfold": "2.79 ± 0.082"}, {"sequence": "SAGGSLDVKIEITPPDGSTRTLDIEVESEEEAIKIAEELQKELGEGNTLKVRITYPGPKSPVELELKSAGGS [r8_107_JUSTAS]", "folding stability dG unfold": "2.2 ± 0.065"}, {"sequence": "SAGGSRIEEVAREILEKLPLKPGEPVLVEVEVDFPDGLRIRLKVEAYVDPETGEVHLKVEILEIEPVSAGGS [r16_634_TrMRF]", "folding stability dG unfold": "3.06 ± 0.069"}, {"sequence": "SAGMPLASVEVEIEKLPDGTYRVRARITIWDPVTGKPLREVEFEGPFESPEAAEAEALKKALEVLEADSAGG [r19_255_TrMRF]", "folding stability dG unfold": "4.06 ± 0.13"}, {"sequence": "SAGGSAGGSAGMIKKVKISRTSDGTVTRTTEYLETDKPGVPKVVTTEVETVTLAPSEPLFSAGGSAGGSAGG [r11_517_JUSTAS]", "folding stability dG unfold": "0.507 ± 0.084"}, {"sequence": "SAGGSNVVEVEVEELPDGTVVLRVRVLRLLPNGELGGVVERPFVFPRELFENIPLEEIVRRAVEEGSAGGSA [r2_421_TrMRF]", "folding stability dG unfold": "3.63 ± 0.072"}, {"sequence": "SAMITVPFTFPAEKAEEILEDPELKELLEKLEKELGAKVVKIEVSPETVPSGSKTTEYVKFTFTIEKKGSAG [r14_819_JUSTAS]", "folding stability dG unfold": "1.55 ± 0.16"}, {"sequence": "SAMKKITLDVYRPPDKLLVTVSFPETGKTVTLPFTSEEALREEIVKKLGLSPEELEIVDRKEKELSPELLSA [r9_909_JUSTAS]", "folding stability dG unfold": "0.46 ± 0.13"}, {"sequence": "SAGGSAGGSAGKIKITEIHFMPNGMVVVEIEFEDPDGETFNLTVVFRFDPNGKIRDIHIMSAGGSAGGSAGG [r11_709_TrROS]", "folding stability dG unfold": "4.22 ± 0.17"}]}, {"test": "folding stability dG unfold from chymotrypsin proteolysis; higher = more stable", "procedure,_shortened": "as §1", "units": {"folding stability dG unfold": "kcal/mol"}, "values": [{"sequence": "SYWIRITINGQTIMFPAEDADKLLGELQSNGWRIKITDIEPDPDDDWIMFKINIRPPKPPPPPPPDPDGKSA [r9_448_TrROS]", "folding stability dG unfold": "3.47 ± 0.041"}, {"sequence": "SADLKIDDVTVQHYNDYLYVSAEITFPNGWEITVHWMIDPNGKIIDMMIEIRPPPPPVDEEDQEKAQKKSAG [r14_171_TrROS]", "folding stability dG unfold": "3.35 ± 0.14"}, {"sequence": "SASFTLTITPVSTLPGGEVKYEVTVTTPTATVTLSATYDPATGLITVTFPETGSTVTFDPATGTVTVTPSAG [r14_260_JUSTAS]", "folding stability dG unfold": "5.089 ± 0.032"}, {"sequence": "SKEVKVKVKVVAPFYNKTKPFPLNIEVEVTVSSSNPELSPEKLTPENLAKIAAEKAREILLKLGIPEEFLSA [r9_516_TrMRF]", "folding stability dG unfold": "3.09 ± 0.14"}, {"sequence": "SAKPKVIAEITIYNKETGKVVRITLTDEALEEAKKKGLKEVKLTVEIEVVNPDGSKKTFKMEITLKVEDSAG [r14_100_TrROS_Hall]", "folding stability dG unfold": "4.08 ± 0.17"}, {"sequence": "SAGGMLPDTLKLAREIAKELGINRIEPLESGEVVLYLPEDKVIVIDTINGIPRVRIYNKDEWIEIPISAGGS [r16_296_TrMRF]", "folding stability dG unfold": "4.56 ± 0.08"}, {"sequence": "SAGSPVTVPLTLTLTYTVNNPEGPEVLKTETIPLPLVFSPEELDDEETKALLQALVDALPDDVSEVVLESAG [r5_849_JUSTAS]", "folding stability dG unfold": "1.43 ± 0.079"}, {"sequence": "SAGGSAGGSAMTIEQIANELAKKLGVDIKVVVTYENGEKKEYRPDELKNIPPGPFTVEFYTDSAGGSAGGSA [r18_394_TrMRF]", "folding stability dG unfold": "3.71 ± 0.1"}, {"sequence": "SGSMTIKLTPDSPVEDVVKFIAENPNVNVTLLMPPEMSEELREKFEKALKEANVPKSQKVTFEVVPPGEESA [r9_670_JUSTAS]", "folding stability dG unfold": "3.87 ± 0.099"}, {"sequence": "SAGGSAGGSKPLVIRVRLTYYDEKTGKKVKEVELTLTVSEEEAKKLAEELKKLYPNVEVEIFPSAGGSAGGS [r12_342_TrROS_Hall]", "folding stability dG unfold": "4.67 ± 0.13"}, {"sequence": "SAGGSAGGSPDVVVTVEKNEDGEETVTVLMSREDVERLAAALPDVKVEELPDGLVLLTVRVKPSAGGSAGGS [r20_231_TrROS_Hall]", "folding stability dG unfold": "0.827 ± 0.07"}, {"sequence": "SAGGGSRTLTRGDKTYVFTTAPPPTGGRYVTLTVVDPATGAPAPVYTMDVTDGTDEEALARLLAAPLSAGGS [r16_378_JUSTAS]", "folding stability dG unfold": "0.847 ± 0.091"}, {"sequence": "SAGGSAGGSAGGGMVLKTEPVVITSTSTAPTEDGKWITTTSTLVVTKELILPSTLPGLLSAGGSAGGSAGGS [r10_1133_JUSTAS]", "folding stability dG unfold": "0.276 ± 0.11"}, {"sequence": "SADPDEEVTLTLTLPASASPEEVEKVRDEIREAFESLGLEVDVKVEADPETGEVPVTVTLKKEALEKLGSAG [r14_602_TrMRF]", "folding stability dG unfold": "1.91 ± 0.06"}, {"sequence": "SAGGSAGGSPKITVDPNTGKVLIEIPGPSGTALIIAEVKDGKITRVDIIGPPELREAIKKLLGSAGGSAGGS [r20_112_TrMRF]", "folding stability dG unfold": "2.04 ± 0.092"}, {"sequence": "SAGGSAGGSAGGMKKKIPNKTLTIEIEVKLENGLYLKMKITVNKNGEIKIEIEVIPKEDLSAGGSAGGSAGG [r7_214_TrROS_Hall]", "folding stability dG unfold": "3.33 ± 0.073"}, {"sequence": "SAGGVIELPNAGLPEFLAFLKEAAEKGIPNVTVILTGPSKPYLAIYDPKKNIVTVLHPNGKTYTFKASAGGS [r16_481_TrMRF]", "folding stability dG unfold": "2.99 ± 0.058"}, {"sequence": "SAGGSAGGSAGGPPKWVIFIMIEIRPVTVEVYDPKNGEPLMEKPVWVIKIKIFLFKPGDFSAGGSAGGSAGG [r7_573_TrROS]", "folding stability dG unfold": "4.82 ± 0.13"}, {"sequence": "SMPMTVEEFLEANPDVILIRLPNEKVIFINPEEEKAFVLLPETGEVLVIDATLEEVLELVPEFGAEILDESA [r9_721_TrMRF]", "folding stability dG unfold": "2.558 ± 0.025"}, {"sequence": "NKIEIKAYKIEETGEIIVEVKIEFPVYDPETKTIKPVVLTITFVGDPEKAIEAIKKFVDFYGGEIDYIDFGS [r1_488_TrMRF]", "folding stability dG unfold": "4.5 ± 0.091"}, {"sequence": "SAGGMPLPFRITQWDPNTGKPVATFPAVYDPETGLVVITPPDGSKEVFDAPLEEIVEALPSNWTVEPSAGGS [r16_543_TrMRF]", "folding stability dG unfold": "-0.0752 ± 0.48"}, {"sequence": "SAGGSAGGSKLVLRIVVRNKETGEWQTLELEIEVEESEEEALAKAKELLASLPEEDVKIEILPSAGGSAGGS [r12_871_TrROS_Hall]", "folding stability dG unfold": "3.79 ± 0.065"}, {"sequence": "SAGGSAGGSKKPVKVTVTVEVNPETGEITKVTVTEEYKDGTVTVTVTNANGEKLTFTFKIKKPSAGGSAGGS [r12_60_TrROS_Hall]", "folding stability dG unfold": "3.099 ± 0.024"}, {"sequence": "SAGGSLDVKIEITPPDGSTRTLDIEVESEEEAIKIAEELQKELGEGNTLKVRITYPGPKSPVELELKSAGGS [r8_107_JUSTAS]", "folding stability dG unfold": "2.51 ± 0.046"}, {"sequence": "SAGGSRIEEVAREILEKLPLKPGEPVLVEVEVDFPDGLRIRLKVEAYVDPETGEVHLKVEILEIEPVSAGGS [r16_634_TrMRF]", "folding stability dG unfold": "2.91 ± 0.064"}, {"sequence": "SAGMPLASVEVEIEKLPDGTYRVRARITIWDPVTGKPLREVEFEGPFESPEAAEAEALKKALEVLEADSAGG [r19_255_TrMRF]", "folding stability dG unfold": "4 ± 0.11"}, {"sequence": "SAGGSAGGSAGMIKKVKISRTSDGTVTRTTEYLETDKPGVPKVVTTEVETVTLAPSEPLFSAGGSAGGSAGG [r11_517_JUSTAS]", "folding stability dG unfold": "0.911 ± 0.039"}, {"sequence": "SAGGSNVVEVEVEELPDGTVVLRVRVLRLLPNGELGGVVERPFVFPRELFENIPLEEIVRRAVEEGSAGGSA [r2_421_TrMRF]", "folding stability dG unfold": "3.758 ± 0.032"}, {"sequence": "SAMITVPFTFPAEKAEEILEDPELKELLEKLEKELGAKVVKIEVSPETVPSGSKTTEYVKFTFTIEKKGSAG [r14_819_JUSTAS]", "folding stability dG unfold": "1.8 ± 0.16"}, {"sequence": "SAMKKITLDVYRPPDKLLVTVSFPETGKTVTLPFTSEEALREEIVKKLGLSPEELEIVDRKEKELSPELLSA [r9_909_JUSTAS]", "folding stability dG unfold": "0.623 ± 0.074"}, {"sequence": "SAGGSAGGSAGKIKITEIHFMPNGMVVVEIEFEDPDGETFNLTVVFRFDPNGKIRDIHIMSAGGSAGGSAGG [r11_709_TrROS]", "folding stability dG unfold": "4.35 ± 0.07"}]}]}
